Results as given in PMC6530996, “HspB1 phosphorylation regulates its intramolecular dynamics and mechanosensitive molecular chaperone interaction with filamin C” (Science Advances, 2019).

Assay: ion mobility collision cross-section
Assay type: physicochemical
Settings: native IM-MS, N2, calibrated with β-lactoglobulin and avidin
Text: To isolate a stable HspB1-FLNCd18–21 complex and localize the binding within HspB1, we performed native ion mobility MS (IM-MS) experiments. […] Next, we mixed FLNCd18–21 with either HspB1_84–171 or peptides mimicking the PPR, because this region is phosphorylated in the MLP KO mice (Fig. 1C) and generally upon biomechanical stress ([26]) and becomes exposed thereafter. This strategy of using segments of HspB1 meant that we could avoid the problems of insolubilization of the full-length protein upon interaction with FLNC d18–21, as well as generally mitigate the confounding effects associated with the chaperone’s intrinsic polydispersity.
Because HspB1 can form disulfide-linked dimers, experiments involving the ACD were performed in the presence of 10-fold molar excess DTT. Gold-plated capillaries were prepared in-house. Native MS and IM-MS data were recorded on a Synapt G1 mass spectrometer (Waters) modified for the transmission of intact noncovalent protein complexes. HspB1_77–171 variants were analyzed at a concentration of 10 μM in 200 mM ammonium acetate (pH 6.9). […]
CCSs (Ω) of models from the PDB (trimmed in PyMOL as described in the Supplementary Materials) were calculated by the projection approximation method using IMPACT ([60]), accounting for N2 as the collision gas. […]

B1: FLNCd18–21: Human FLNC domains 18-21 (protein)
chain: TAKITGDDSMRTSQLNVGTSTDVSLKITESDLSQLTASIRAPSGNEEPCLLKRLPNRHIGISFTPKEVGEHVVSVRKSGKHVTNSPFKILVGPSEIGDASKVRVWGKGLSEGHTFQVAEFIVDTRNAGYGGLGLSIEGPSKVDINCEDMEDGTCKVTYCPTEPGTYIINIKFADKHVPGSPFTVKVTGEGRMKESITRRRQAPSIATIGSTCDLNLKIPGNWFQMVSAQERLTRTFTRSSHTYTRTERTEISKTRGGETKREVRVEESTQVGGDPFPAVFGDFLGRERLGSFGSITRQQEGEASSQDMTAQVTSPSGKVEAAEIVEGEDSAYSVRFVPQEMGPHTVAVKYRGQHVPGSPFQFTVGPLGEGGAHKVRAGGTGLERGVAGVPAEFSIWTREAGAGGLSIAVEGPSKAEIAFEDRKDGSCGVSYVVQEPGDYEVSIKFNDEHIPDSPFVVPVASLSDDA
modifications: left off: His6, C-terminal, state not stated | EEF, C-terminal, kept
collision cross section (CCS): 37.2 ± 0.8 nm^2
